Laboratory results: paper PMC2965138, “DEB025 (Alisporivir) Inhibits Hepatitis C Virus Replication by Preventing a Cyclophilin A Induced Cis-Trans Isomerisation in Domain II of NS5A” (PLoS ONE, 2010)

Molecular target: T1, Recombinant 15N-labelled CypA (UniProt P62937 1-165, 15N-labelled)
T1 construct: Cyclophilin A (CypA), peptidyl-prolyl cis-trans isomerase; also called 15N-CypA; source: recombinant, produced and purified as described previously [18]
Assay: NMR titration; 15N-labelled CypA (100 µM) mixed with increasing concentrations of unlabelled peptide (0 to 2.5 mM); 1H,15N HSQC at each step; KD fitted from combined chemical shift perturbations
Conditions: both partners purified

| Binder | Kd [µM] |
| --- | --- |
| KFPRAMPIWARPDYNPPLLE (NS5A domain II of hepatitis C virus genotype 1b (Con1), residues 308-327; numbers count on: NS5A itself; also called WT peptide; Pep-WT peptide; source: synthetic peptide, bought: Neosystems (Strasbourg, France), purity greater than 95%) [Pep-WT (residues 308-327 of NS5A from HCV GT1b Con1)] | 802 |
| KFPRAMPIWARPEYNPPLLE (numbers count on: NS5A itself; also called D320E peptide; Pep-D320E peptide; source: synthetic peptide, bought: Neosystems (Strasbourg, France), purity greater than 95%) [Pep-D320E (residues 308-327 of NS5A from HCV GT1b Con1 with D320E)] | 1230 |
